Results on 1 molecule are retold here after patent publication US20230312718A1 (Regeneron, published 2023).

The target in the assay is T1, MUC16 on OVCAR-3 cells (human, UniProt Q8WXI7 1-14507).
T1 construct: whole, on cells
The assay can be described thus: FACS binding to OVCAR-3 cells.

B1: BSMUC16/CD3-001 (bispecific antibody, V domains shown)
VH 1: QVQLVESGGGLVKPGGSLRLSCAASGFTFSNYYMSWVRQAPGKGLEWISYISGRGSTIFYADSVKGRITISRDNAKNSLFLQMNSLRAEDTAVYFCVKDRGGYSPYWGQGTLVTVSS
VH 2: EVQLVESGGGLVQPGRSLRLSCAASGFTFDDYSMHWVRQAPGKGLEWVSGISWNSGSKGYADSVKGRFTISRDNAKNSLYLQMNSLRAEDTALYYCAKYGSGYGKFYHYGLDVWGQGTTVTVSS
VL: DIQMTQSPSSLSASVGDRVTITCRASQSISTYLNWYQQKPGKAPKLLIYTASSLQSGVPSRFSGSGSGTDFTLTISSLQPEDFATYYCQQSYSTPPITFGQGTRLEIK
notes: It was biotinylated in the ELISA and 89Zr-DFO labelled in the PET study; also called REGN4018; ubamatamab
With B1, the binding result is given as “binds”.
